Experimental data reported in patent publication US10065989B2, “Molecular sleds and uses thereof” (The Broad Institute, Inc., priority 2012, dated 2018).
Values joined by “and” are separate entries in the source; they are usually repeats but may differ in a detail not shown here. Equal values may be shown once. “Also recorded” adds a separate entry of the source. Read-outs that look alike come from different tables or passages of the source.

Key:
lambda DNA = assay: Single-molecule DNA sliding assay on flow-stretched DNA (TIRF microscopy); design: species or system bacteriophage lambda; one-dimensional diffusion constant: unit not given here; details: for One-Dimensional Diffusion Constant (mean D1 ± SEM): lambda DNA, low salt 2-6 mM NaCl
Source text: To determine whether AVP-pVIc complexes slide on DNA, Applicants used single-molecule fluorescence microscopy (FIG. 10C) with flow-stretched DNA, (FIG. 10D,E) (Kabata, H. et al. Visualization of single molecules of RNA polymerase sliding along DNA. Science 262, 1561-3 (1993); Harada, Y. et al. Single-molecule imaging of RNA polymerase-DNA interactions in real time. Biophys. J. 76, 709-715 (1999) and Blainey, P. C., van Oijen, A. M., Banerjee, A., Verdine, G. L. & Xie, X. S. A base-excision DNA-repair protein finds intrahelical lesion bases by fast sliding in contact with DNA. Proc Natl Acad Sci USA 103, 5752-7 (2006)). […] Biochemistry 40, 13237-13245 (2001)), and furthermore to diffuse rapidly over tens of thousands of base pairs before dissociating from the DNA. For example, the molecule whose motion is shown in the raw image data in FIG. 12A traveled more than 20,000 base pairs during a 0.9 sec binding event. Despite the optical resolution limit imposed by diffraction, the centroid position of each signal in each frame was determined with 11 nm spatial precision at 3.5 ms time resolution (Gelles, J., Schnapp, B. J. & Sheetz, M. P. Tracking kinesin-driven movements with nanometer-scale precision. Nature 331, 450-3 (1988) and Thompson, R. E., Larson, D. R. & Webb, W. W. Precise nanometer localization analysis for individual fluorescent probes. Biophys J 82, 2775-83 (2002)), FIG. 12B.
Flow cells containing bacteriophage lambda DNA immobilized at one end were constructed as described previously (Blainey, P. C., van Oijen, A. M., Banerjee, A., Verdine, G. L. & Xie, X. S. A base-excision DNA-repair protein finds intrahelical lesion bases by fast sliding in contact with DNA. Proc Natl Acad Sci USA 103, 5752-7 (2006)). Labeled samples of AVP-pVIc complexes were infused at concentrations of 1-2 nM at rates of 20-50 mL/hour. Flow rates were chosen to drive the longitudinal DNA fluctuation faster than the imaging frame rate (Blainey, P. C., van Oijen, A. M., Banerjee, A., Verdine, G. L. & Xie, X. S. A base-excision DNA-repair protein finds intrahelical lesion bases by fast sliding in contact with DNA. Proc Natl Acad Sci USA 103, 5752-7 (2006)). The assay buffers consisted of 10 mM MES (pH 6.5), 2-25 mM NaCl, 50 μM EDTA, 20 mM ethanol, 5 percent glycerol, and, where indicated in the text, reducing agent (DTT and mercaptoethanol gave equivalent results). “Low salt” measurements were conducted with 2-6 mM NaCl; “high salt” measurements were conducted with 20-25 mM NaCl.
Due to the speed and duration of sliding by AVP-pVIc complexes, these events were readily identifiable manually. All AVP-pVIc complex DNA-binding events noted were included in the analyses. Once events had been identified, signals were tracked using Gaussian centroid determination in the Matlab environment. Molecular trajectories were analyzed in Matlab by methods similar to those previously published (Blainey, P. C., van Oijen, A. M., Banerjee, A., Verdine, G. L. & Xie, X. S. A base-excision DNA-repair protein finds intrahelical lesion bases by fast sliding in contact with DNA. Proc Natl Acad Sci USA 103, 5752-7 (2006)).
A question is does pVIc by itself slide on DNA. To address this possibility, Applicants performed a sliding assay (Blainey et al., 2012, Activated Adenovirus Proteinase Slides Along Viral DNA Via One-Dimensional Diffusion to Locate and Process its Substrate and Blainey et al., 2009, Nonspecifically bound proteins spin while diffusing along DNA. Nat Struct Mol Biol 16, 1224-1229 and Blainey et al., 2006, A base-excision DNA-repair protein finds intrahelical lesion bases by fast sliding in contact with DNA. Proc Natl Acad Sci USA 103, 5752-5757) using pVIc labeled with Cy3B at Cys10′. […] The sliding assay, based upon total internal reflection fluorescence microscopy, used phage λ DNA molecules (48,502 base pairs) attached at one end to a glass cover slip surface by a biotin-streptavidin linkage. The area of the cover slip with DNA was placed within a flow cell. […]

[1] = test system: virion precursor proteins in heat-disrupted Ad2 ts-1 virions; assay: Processing of virion precursor proteins in heat-disrupted ts-1 virus; type: biochemical
dsDNA [2] = details: 12-mer dsDNA, pH 7; McGrath et al. 2001; read-out: KD(app.); cited from earlier work
AVP [3] = target: T1, AVP (Human adenovirus C serotype 2, UniProt P03252); details: cited from earlier work
T1 sequence (P03252 whole entry): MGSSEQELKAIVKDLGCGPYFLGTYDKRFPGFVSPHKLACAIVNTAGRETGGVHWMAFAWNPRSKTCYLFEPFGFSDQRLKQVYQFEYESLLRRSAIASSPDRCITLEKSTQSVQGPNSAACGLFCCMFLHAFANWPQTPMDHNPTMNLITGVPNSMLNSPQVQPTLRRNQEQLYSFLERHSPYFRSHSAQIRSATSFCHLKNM

dsDNA [4] = type: binding
[5] = Detergent requirement for solubility, dynamic light scattering; type: physicochemical
Source text: Briefly, the gene for pVI and an expressible gene of VI were synthesized by PCR and inserted into expression vectors. The vectors for pVI and VI were used to transform Escherichia coli BL21 (DE3) Codon Plus cells. Recombinant proteins were expressed in autoinduction media (Studier, F. W. (2005) Protein Expr. Purif. 41, 207-234). Purification of pVI and VI was accomplished by cation-exchange and size exclusion chromatography. The proteins were about 99% pure. pVI and VI required a detergent to keep them in solution. Below a concentration of DDM of 0.0125%, the proteins were insoluble, as determined by dynamic light scattering.

AVP [6] = target: T1, AVP
Protocol: Assays contained 3.38 μM pVI, 6.54 μM AVP and either 3.38 μM 36 bp dsDNA or no DNA. After the indicated time intervals, aliquots were removed and assayed for enzymatic activity. 100% activity is the enzyme activity of 3.38 μM AVP-pVIc complexes bound to DNA. (∘) plus DNA, (∇) minus DNA. […] After 30 min. at 21° C., the amount of AVP-pVIc formed was assayed. (C) SDS-PAGE (15% polyacrylamide gel) analysis of the reactions in (B) except that the concentrations of pVI, AVP and DNA were 26-fold higher. The DNA concentration in the reactions fractionated on the gel increased from left to right. In B and C, parentheses including the same number indicates the ratio of protein to DNA in B and C is the same.
Another question is if DNA is required for the activation of AVP by pVI. Applicants repeated the experiment but in the presence of dsDNA.
To see if both enzyme (AVP) and substrate (pVI) must be on the same molecule of DNA for activation to occur or whether they can interact when bound to different DNA molecules, Applicants incubated increasing concentrations of DNA with a mixture of AVP and pVI, each at a concentration such that both should bind to DNA at any DNA concentration. And then Applicants assayed for enzyme activation (FIG. 6B).

Ad2 hexon [7] = target: T2, Ad2 hexon (human adenovirus serotype 2 (Ad2), UniProt P03277 2-968); assay: summary sentence of Example 1; fluorescence titration of Cy3B-pVI with hexon
T2 construct: also called hexon trimer; major capsid protein hexon
T2 sequence (P03277 2-968 limits assumed): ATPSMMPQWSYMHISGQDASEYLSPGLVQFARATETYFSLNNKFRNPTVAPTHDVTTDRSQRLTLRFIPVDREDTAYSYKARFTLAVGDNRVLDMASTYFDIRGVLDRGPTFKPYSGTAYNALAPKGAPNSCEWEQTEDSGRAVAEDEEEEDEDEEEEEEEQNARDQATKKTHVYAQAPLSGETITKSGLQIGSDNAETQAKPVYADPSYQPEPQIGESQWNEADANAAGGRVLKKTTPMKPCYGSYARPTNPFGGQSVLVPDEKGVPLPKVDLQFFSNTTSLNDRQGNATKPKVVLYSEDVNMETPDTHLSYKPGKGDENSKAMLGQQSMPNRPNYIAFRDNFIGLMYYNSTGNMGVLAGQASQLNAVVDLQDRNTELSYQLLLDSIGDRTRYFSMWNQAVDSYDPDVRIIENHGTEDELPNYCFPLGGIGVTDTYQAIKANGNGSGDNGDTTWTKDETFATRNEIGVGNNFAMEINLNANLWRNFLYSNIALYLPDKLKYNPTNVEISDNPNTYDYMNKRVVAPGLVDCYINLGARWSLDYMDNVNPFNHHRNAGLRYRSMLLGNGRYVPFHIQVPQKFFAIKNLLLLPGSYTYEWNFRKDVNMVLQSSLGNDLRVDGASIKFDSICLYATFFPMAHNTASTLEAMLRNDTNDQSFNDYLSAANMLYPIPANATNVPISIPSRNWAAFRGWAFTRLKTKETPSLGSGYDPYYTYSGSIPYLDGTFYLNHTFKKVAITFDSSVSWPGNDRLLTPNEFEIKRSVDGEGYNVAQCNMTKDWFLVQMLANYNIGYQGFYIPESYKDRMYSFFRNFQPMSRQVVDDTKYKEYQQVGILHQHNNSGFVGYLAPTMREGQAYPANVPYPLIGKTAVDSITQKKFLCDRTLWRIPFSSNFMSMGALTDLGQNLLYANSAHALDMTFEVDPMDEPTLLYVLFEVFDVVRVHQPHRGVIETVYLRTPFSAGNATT

Ad2 hexon [8] = target: T2, Ad2 hexon; assay: fluorescence anisotropy under tight binding conditions; 20 nM Cy3B-pVI titrated with hexon
Ad2 hexon [9] = target: T2, Ad2 hexon; assay: fluorescence quenching; 1 nM Cy3B-pVI titrated with hexon (monomer concentrations), 20 mM Hepes pH 7, 150 mM NaCl

AVP: adenovirus proteinase, a 23 kDa cysteine proteinase
sliding along DNA (in words) (lambda DNA): does not slide effectively along DNA
processing of precursor proteins after DNase treatment ([1]; heat disrupted ts-1 virus incubated with DNase, 2 or 24 hours): no processing of pVI or the other precursor proteins was observed
time within which all pVI was processed ([1]; heat disrupted ts-1 virus, DNA present): ≤ 24 hours
Kd (dsDNA [2]): 63 nM and 63.1 nM
increase of relative kcat/Km of AVP (AVP [3]; in the presence of DNA): 110 fold
increase of relative kcat/Km of AVP (AVP [3]; in the presence of pVIc): 1130 fold

SFRRCGLRQVK [Random peptide, reference compound]
Kd (dsDNA [4]; 12-mer dsDNA, pH 8, peptide labeled at Cys5′ with Cy3B, read-out: Kd(app.)): 646 ± 75 nM
sliding along DNA (in words) (lambda DNA): No Diffusion
sliding along DNA (in words) (lambda DNA; listed as SFRRCGLRQVK): No one-dimensional diffusion of the peptide was observed; also recorded: does not slide along the DNA
cofactor activity in stimulating AVP (AVP [3]; up to a concentration of 60 M, Brown and Mangel 2004): did not act like a cofactor in stimulating AVP

SGPSIVHRKCF [11-Actin-C, last 11 amino acids of β-actin]
One-Dimensional Diffusion Constant (mean D1 ± SEM) (lambda DNA): 6.40 (bp)^2/s × 10^−6

SIVHRKCF [8-Actin-C, 8-amino acid peptide from the C-terminus of β-actin]
Kd (dsDNA [4]; 12-mer dsDNA, pH 7, Cy3B label on peptide, read-out: Kd(app.)): 5 ± 0.78 nM
One-Dimensional Diffusion Constant (mean D1 ± SEM) (lambda DNA): 5.45 (bp)^2/s × 10^−6

B1: precursor to adenovirus protein VI, pVI (other)
chain: MEDINFASLAPRHGSRPFMGNWQDIGTSNMSGGAFSWGSLWSGIKNFGSTIKNYGSKAWNSSTGQMLRDKLKEQNFQQKVVDGLASGISGVVDLANQAVQNKINSKLDPRPPVEEPPPAVETVSPEGRGEKRPRPDREETLVTQIDEPPSYEEALKQGLPTTRPIAPMATGVLGQHTPVTLDLPPPADTQQKPVLPGPSAVVVTRPSRASLRRAASGPRSMRPVASGNWQSTLNSIVGLGVQSLKRRRCF
notes: range 1-250; also called Cy3B-pVI; adenovirus precursor protein pVI
Kd (dsDNA [4]; 12-mer dsDNA, 0.02 M NaCl, read-out: KD): 55 nM
Kd (dsDNA [4]; 12-mer dsDNA, 0.03 M NaCl, read-out: KD): 155 nM
Kd (dsDNA [4]; 12-mer dsDNA, 0.04 M NaCl, read-out: KD): 328 nM
Kd (dsDNA [4]; 12-mer dsDNA, 0.05 M NaCl, read-out: KD): 449 nM
Kd (dsDNA [4]; 12-mer dsDNA, 0.06 M NaCl, read-out: KD): 1040 nM
Kd (dsDNA [4]; 33-mer dsDNA, 1 mM MgCl2, buffer B pH 8, 21° C., read-out: KD(app.)): 35 nM
one-dimensional diffusion constant (lambda DNA): 1.45×10^6
one-dimensional diffusion constant (mean) (lambda DNA; flow-stretched lambda DNA, low salt): 1.45±0.13×10^6 (bp)^2/s and 1.45×10^6 (bp)^2/s
minimum DDM concentration required to remain in solution [5]: 0.0125%
rate of AVP activation relative to rate at peak DNA concentration (50 nM) (AVP [6]; 77 nM pVI, 130 nM AVP, 320 nM 36-mer dsDNA): 12%
pVI cleaved and used to form active AVP-pVIc complexes (AVP [6]; 3.38 μM pVI, 6.54 μM AVP, 3.38 μM 36 bp dsDNA, by one hour): 100%
enzymatic activity after mixing AVP with pVI (AVP [6]; no DNA): no enzymatic activity was detected
time by which all pVI had disappeared (SDS-PAGE) (AVP [6]; with AVP and 36 bp dsDNA): ≤ 10 minutes
Kd (Ad2 hexon [7]): 1.9 nM and 1.85 nM
stoichiometry of binding of pVI to hexon monomer (Ad2 hexon [8]): 1 pVI per hexon monomer
Kd (Ad2 hexon [9]): 1.8 nM
